Experimental data: patent EP4687981A2 (dated 2026)

Molecular target: T1, human CDH11 on primary human fibroblast-like synoviocytes (FLS) (human, UniProt P55287 54-796)
T1 construct: whole, on cells; also called human FLS; human synoviocytes
T1 sequence (looked up): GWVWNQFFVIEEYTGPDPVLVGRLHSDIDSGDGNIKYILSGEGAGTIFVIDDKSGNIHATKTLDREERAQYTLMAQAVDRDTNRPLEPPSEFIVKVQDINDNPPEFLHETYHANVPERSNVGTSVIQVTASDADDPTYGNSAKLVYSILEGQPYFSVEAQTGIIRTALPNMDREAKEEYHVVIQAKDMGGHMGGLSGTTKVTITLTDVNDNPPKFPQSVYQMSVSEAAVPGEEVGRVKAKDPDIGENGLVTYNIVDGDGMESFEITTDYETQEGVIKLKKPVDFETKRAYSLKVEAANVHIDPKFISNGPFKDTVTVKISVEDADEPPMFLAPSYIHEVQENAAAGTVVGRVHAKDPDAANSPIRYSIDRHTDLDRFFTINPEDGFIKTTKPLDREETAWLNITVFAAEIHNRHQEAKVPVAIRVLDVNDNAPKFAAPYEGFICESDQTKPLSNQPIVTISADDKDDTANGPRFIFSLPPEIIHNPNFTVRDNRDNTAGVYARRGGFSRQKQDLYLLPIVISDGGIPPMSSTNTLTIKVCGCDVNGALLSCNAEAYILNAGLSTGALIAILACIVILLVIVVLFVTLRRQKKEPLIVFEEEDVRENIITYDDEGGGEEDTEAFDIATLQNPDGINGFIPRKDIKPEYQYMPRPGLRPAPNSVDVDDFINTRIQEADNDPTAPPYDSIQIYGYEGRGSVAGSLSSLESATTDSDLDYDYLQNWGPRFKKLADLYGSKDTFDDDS
Assay: flow cytometry, hybridoma supernatant on primary human FLS

B1: anti-CDH11 antibody 10E1 (antibody, V domains shown)
VH: QVQLQQSGPGLVKPSQTLSLTCAISGDSVSSNSAAWNWIRQSPSRGLEWLGRTYYRSKWYNDYAVSVKSRITINPDTSKNQFSLQLNSMTPEDTAVYYCARATMVRGAFDYWGQGTLVTVSS
VL: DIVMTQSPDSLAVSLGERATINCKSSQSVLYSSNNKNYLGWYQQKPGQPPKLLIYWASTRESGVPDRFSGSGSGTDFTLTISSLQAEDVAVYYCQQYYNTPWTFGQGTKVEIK
notes: Monoclonal from a VelocImmune mouse hybridoma; It was detected with anti-mouse IgG Fc, so the constant regions are mouse; the isotype cannot be read in this copy; also called clone 10E1
B1: binds.
